{"source": "paper PMC4273445", "about": "(eLife, 2014)", "assay_in_all_cases": "SPR", "key": {"[1]": {"molecular_target": "fHbp V2.21 Phe (at V1 Phe194) to Ala (N. meningitidis)"}, "[2]": {"molecular_target": "fHbp V3.28 Leu (at V1 Arg195) to Ala (N. meningitidis)"}, "[3]": {"molecular_target": "fHbp V2.21 His (at V1 His203) to Ala (N. meningitidis)"}, "[4]": {"molecular_target": "factor H binding protein (fHbp) V1.1 (N. meningitidis) (UniProt Q9JXV4)"}, "[5]": {"molecular_target": "fHbp V2.21 Leu (at V1 Ile199) to Ala (N. meningitidis)"}, "[6]": {"molecular_target": "fHbp V3.28 Thr (at V1 Ser286) to Ala (N. meningitidis)"}}, "data": [{"substance": "CFHR3_(12), the first two (N-terminal) CCP domains of complement factor H-related 3 (from UniProt Q02985 19-330) (domain or fragment)", "values": [{"measurement": "Kd", "setting": "[1]", "result": 1.08, "unit": "nM"}, {"measurement": "Kd", "setting": "[2]", "result": 1.76, "unit": "nM"}, {"measurement": "Kd", "setting": "[3]", "result": 3.81, "unit": "nM"}, {"measurement": "Kd", "setting": "[4]", "result": 59.4, "unit": "nM"}, {"measurement": "Kd", "setting": "[5]", "result": 11.2, "unit": "nM"}, {"measurement": "Kd", "setting": "[6]", "result": 33.1, "unit": "nM"}]}]}
